Reference: IntAct's records for PubMed 24751834

B1: Type VI secretion system spike protein VgrG3 (Vibrio cholerae), Q9KN42 (parent)
chain: MARLQFQLKVDGLEDESLVVRGFEGQESLSDSVWRCEPCYGFRYQVDLASALSNLTAEQFVDQTAHLTILRDGQVVQQINGIVRQLSKGDTGHRHTFYSLTLVPALERLSLRSNSRIFQQQSVPEIISILLQEMGIEDYAFALKRECAQREFCVQYRETDLQFLHRIAAEEGLVYSHLHEAQKHTLLFTDSSDSQPKLAKPVPYNALAGGEINLPYVVDLQFKTTAQVSHTELKDYSFKKPAYGFTQRTQGKDIAYQQPNYEHFDAPGRYKDDANGKAFSQIRLEYLRRDALLADAKSDEPLLLAGVRFDLQDHLDHAMNRDWLVVQANHQGTQPQALQEEGGSGATTYSNQLKLIPAHITWRARPCAKPQVDGPMIATVVGPQGEEIYCDNFGRVKVHFPWDRYSSSNEKSSCWVRVAQEWAGSQYGSMAIPRVGHEVIVSFLNGDPDQPIITGRTYHATNTAPYALPDHKTKTVLRTETHQGQGYNELSFEDQAGSEQILLHAQKDWDALIEHDHTEVIRHDQHLTVDNDRFTRIQRNQHLTVEGEVRSKIALDSSHEVGASLQHKVGQRIAVEAGKEISLKSGAKIVVEAGAELTLKAGGSFVKVDAGGVHLVGPAINLNAGGSAGSGSAYGGQLAAAPRMLAQAKPVAELVQPDIAASMQSGAARVIDVASLPTMMPSSANNTANDEPVAEEKTPERILKSDLLKPSDELEKLAKRQASAYRQGNHSDEVKLLQEALIKLGFDLGKAGADGDFGSKTKTAIEQFQKSYQPSHQTHPSYSIGAVDGIVGKGTLLALDEALMDGWVYENNIYQIWPLGKTSEKYESAGRGPGVISTGNGDYGGASYGCYQMSSNLGVVQKYIQSSKFKEFFSGLNPATKEFNVVWQDIASRYPQEFREEQHQFIKRTHYDIQIGHLRGKGLLFEHNRAAVHDLIWSTSVQFGGRTNLIFNALNGQNMESMTDKDIIILVQDYKLVNTERLFKSSPSWWSDLKKRAVSEKKALLELEIDGLEVDIK
partner: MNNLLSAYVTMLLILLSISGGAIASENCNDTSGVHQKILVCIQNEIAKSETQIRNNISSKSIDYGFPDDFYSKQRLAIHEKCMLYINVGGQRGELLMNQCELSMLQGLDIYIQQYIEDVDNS

Variants of: B1
Conditions: with tsiv3_vibch tsiV3, Q9KN41

Variant	effect of a mutation on the interaction
Q942A	decreasing interaction

Variants of: B1
Conditions: with tsiv3_vibch tsiV3, Q9KN41
Remark: another data set of the same source

Variant	effect of a mutation on the interaction
Y826A	decreasing interaction

Variants of: B1
Conditions: with tsiv3_vibch tsiV3, Q9KN41
Remark: another data set of the same source

Variant	effect of a mutation on the interaction
L982A	decreasing interaction

Variants of: B1
Conditions: with tsiv3_vibch tsiV3, Q9KN41
Remark: another data set of the same source

Variant	effect of a mutation on the interaction
V941A	decreasing interaction

Variants of: B1
Conditions: with tsiv3_vibch tsiV3, Q9KN41
Remark: another data set of the same source

Variant	effect of a mutation on the interaction
R996A	decreasing interaction

Variants of: B1
Conditions: with tsiv3_vibch tsiV3, Q9KN41
Remark: another data set of the same source

Variant	effect of a mutation on the interaction
D842A	decreasing interaction
